The numbers were not newly measured in paper PMC3039521, which cites them from elsewhere.

In general, Kd refers to a measure of binding affinity in units of concentration.

The series has as its target Abl P-x-L-P-x-K motif (UniProt P00519).

Turning to Crk SH3N (from UniProt P46108), the Kd was 1000 nM.
